2 variants from article PMC13090976 (Cell Stress & Chaperones, 2026) can be followed below.

The labels stand for the following.
B1: human CHIP-TPR (residues 21-154) [human] / biotin-GSGSGP(pT)IEEVD [modified: biotin, printed before the first residue; phosphothreonine (pT; Thr636 in HSPA1A numbering); biotin, printed before the first residue; phosphothreonine (pT; … (parent complex)
chain 1: EKSPSAQELKEQGNRLFVGRKYPEAAACYGRAITRNPLVAVYYTNRALCYLKMQQHEQALADCRRALELDGQSVKAHFFLGQCQLEMESYDEAIANLQRAYSLAKEQRLNFGDDIPSALRIAKKKRWNSIEERR
chain 2: GSGSGPTIEEVD

The variants in this assay derive from B1. Kind of assay: biolayer interferometry; read off a plot.
As to chain 1 G112S, the Kd is around 1 µM. The result for chain 1 N45S reads around 6.6 µM.
